# Test results as given in paper PMC3448598, “A Role for the CAL1-Partner Modulo in Centromere Integrity and Accurate Chromosome Segregation in Drosophila” (PLoS ONE, 2012).
# T1: FLAG-CAL1 (Drosophila, UniProt Q9VEN2 1-979)
# T1 construct: Chromosome Alignment 1 (CAL1), Drosophila; The results say the fusion is expressed under the endogenous CAL1 promoter, the methods say under the pCopia promoter; also called FLAG-tagged CAL1; Chromosome Alignment 1; source: Drosophila S2 cells stably expressing FLAG-CAL1, in chromatin-free extract / nuclear (chromatin) extract; not shown: FLAG, N-terminal, kept
# T1 sequence (looked up): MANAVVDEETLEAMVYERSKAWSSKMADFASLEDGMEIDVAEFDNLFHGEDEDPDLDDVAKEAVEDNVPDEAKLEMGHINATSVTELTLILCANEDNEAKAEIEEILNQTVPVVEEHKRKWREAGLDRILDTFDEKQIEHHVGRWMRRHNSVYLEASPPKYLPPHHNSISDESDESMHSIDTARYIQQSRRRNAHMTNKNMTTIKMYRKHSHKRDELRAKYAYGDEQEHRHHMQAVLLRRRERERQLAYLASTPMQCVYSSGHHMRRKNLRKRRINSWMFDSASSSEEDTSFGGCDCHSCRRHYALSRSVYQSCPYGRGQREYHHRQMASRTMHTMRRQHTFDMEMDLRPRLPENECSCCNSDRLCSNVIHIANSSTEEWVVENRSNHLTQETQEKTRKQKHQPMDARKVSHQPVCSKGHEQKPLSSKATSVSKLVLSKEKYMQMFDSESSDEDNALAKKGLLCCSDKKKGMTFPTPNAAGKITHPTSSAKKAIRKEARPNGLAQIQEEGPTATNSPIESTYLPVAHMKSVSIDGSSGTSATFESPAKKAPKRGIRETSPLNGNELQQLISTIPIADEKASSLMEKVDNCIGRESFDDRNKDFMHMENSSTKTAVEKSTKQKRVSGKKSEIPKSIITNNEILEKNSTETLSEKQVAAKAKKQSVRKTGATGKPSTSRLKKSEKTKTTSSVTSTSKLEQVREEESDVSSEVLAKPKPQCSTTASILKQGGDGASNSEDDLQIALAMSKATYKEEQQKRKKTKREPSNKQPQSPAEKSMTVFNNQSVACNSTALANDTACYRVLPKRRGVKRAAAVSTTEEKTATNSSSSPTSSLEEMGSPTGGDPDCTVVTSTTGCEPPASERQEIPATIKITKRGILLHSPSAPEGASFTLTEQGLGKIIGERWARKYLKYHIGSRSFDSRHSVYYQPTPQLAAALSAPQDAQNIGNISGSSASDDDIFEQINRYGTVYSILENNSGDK
# B1: CAL1 (natural protein, Drosophila (endogenous in S2 cells), UniProt Q9VEN2 1-979, looked up)
# chain: MANAVVDEETLEAMVYERSKAWSSKMADFASLEDGMEIDVAEFDNLFHGEDEDPDLDDVAKEAVEDNVPDEAKLEMGHINATSVTELTLILCANEDNEAKAEIEEILNQTVPVVEEHKRKWREAGLDRILDTFDEKQIEHHVGRWMRRHNSVYLEASPPKYLPPHHNSISDESDESMHSIDTARYIQQSRRRNAHMTNKNMTTIKMYRKHSHKRDELRAKYAYGDEQEHRHHMQAVLLRRRERERQLAYLASTPMQCVYSSGHHMRRKNLRKRRINSWMFDSASSSEEDTSFGGCDCHSCRRHYALSRSVYQSCPYGRGQREYHHRQMASRTMHTMRRQHTFDMEMDLRPRLPENECSCCNSDRLCSNVIHIANSSTEEWVVENRSNHLTQETQEKTRKQKHQPMDARKVSHQPVCSKGHEQKPLSSKATSVSKLVLSKEKYMQMFDSESSDEDNALAKKGLLCCSDKKKGMTFPTPNAAGKITHPTSSAKKAIRKEARPNGLAQIQEEGPTATNSPIESTYLPVAHMKSVSIDGSSGTSATFESPAKKAPKRGIRETSPLNGNELQQLISTIPIADEKASSLMEKVDNCIGRESFDDRNKDFMHMENSSTKTAVEKSTKQKRVSGKKSEIPKSIITNNEILEKNSTETLSEKQVAAKAKKQSVRKTGATGKPSTSRLKKSEKTKTTSSVTSTSKLEQVREEESDVSSEVLAKPKPQCSTTASILKQGGDGASNSEDDLQIALAMSKATYKEEQQKRKKTKREPSNKQPQSPAEKSMTVFNNQSVACNSTALANDTACYRVLPKRRGVKRAAAVSTTEEKTATNSSSSPTSSLEEMGSPTGGDPDCTVVTSTTGCEPPASERQEIPATIKITKRGILLHSPSAPEGASFTLTEQGLGKIIGERWARKYLKYHIGSRSFDSRHSVYYQPTPQLAAALSAPQDAQNIGNISGSSASDDDIFEQINRYGTVYSILENNSGDK
# notes: Chromosome Alignment 1 (CAL1), Drosophila, endogenous in untransfected S2 cells; runs approximately as a 150 KDa protein; also called Chromosome Alignment 1; source: endogenous, Drosophila S2 cells, in nuclear (chromatin) extract
# B2: Modulo (natural protein, Drosophila (endogenous in S2 cells), UniProt P13469 1-542, looked up)
# chain: MAQKKAVTVKGKKATNGEEKPLAKRVTKSTKVQEEETVVPQSPSKKSRKQPVKEVPQFSEEDESDVEEQNDEQPGDDSDFETEEAAGLIDDEAEEDEEYNSDDEEDDDDDELEPGEVSKSEGADEVDESDDDEEAPVEKPVSKKSEKANSEKSEENRGIPKVKVGKIPLGTPKNQIVFVTNLPNEYLHKDLVALFAKFGRLSALQRFTNLNGNKSVLIAFDTSTGAEAVLQAKPKALTLGDNVLSVSQPRNKEENNERTVVVGLIGPNITKDDLKTFFEKVAPVEAVTISSNRLMPRAFVRLASVDDIPKALKLHSTELFSRFITVRRISQESISRTSELTLVVENVGKHESYSSDALEKIFKKFGDVEEIDVVCSKAVLAFVTFKQSDAATKALAQLDGKTVNKFEWKLHRFERSTSGRAILVTNLTSDATEADLRKVFNDSGEIESIIMLGQKAVVKFKDDEGFCKSFLANESIVNNAPIFIEPNSLLKHRLLKKRLAIGQTRAPRKFQKDTKPNFGKKPFNKRPAQENGGKSFVKRARF
# notes: Modulo, Drosophila nucleolar protein, endogenous in S2 cells; runs as a 75 KDa protein; also called nucleolar protein Modulo; Drosophila nucleolin homolog; source: endogenous, Drosophila S2 cells, in chromatin-free extract / nuclear (chromatin) extract
# Legend:
# [1] = biological target: B2; test: co-IP; anti-Modulo antibody coupled to Dynabead Protein-A, 2 h at 4°C, extracts of nuclei from S2 cells; mock IP without antibody; Western blot with anti-CAL1; settings: partners not purified
# [2] = biological target: T1, FLAG-CAL1; test: co-IP; anti-FLAG M2 agarose, 2 h at 4°C, extracts of nuclei from S2 cells stably expressing FLAG-CAL1 and from untagged S2 cells; Western blot with anti-Modulo; quantified with Image J; settings: partners not purified
fold enrichment in the anti-Modulo IP over the mock IP [1],fold enrichment in the FLAG-CAL1 IP over the IP from untagged S2 cells [2],Binder
8 fold,–,B1
–,5 fold,B2
